Measurements taken from US20090291504A1.

Columns and labels:
[1] = target: Cre fragments alpha5 + beta1 (Casanova et al. 2003) (bacteriophage P1?) (UniProt P06956+P06956); experiment: cell_activity; details: HEK293 GFP reporter
[2] = target: cCre (C-terminal half of Cre fused at its N-terminus to the C-peptide leucine zipper) (bacteriophage P1) (UniProt P06956); experiment: cell-based or functional assay
[3] = target: nlcCre (cCre with an extra SV40 large T antigen NLS) (Simian Virus 40; bacteriophage P1) (UniProt P06956); experiment: cell-based or functional assay
[4] = system: Cre fragment β1 (reported in Casanova et al., 2003)
[5] = target: T1, C-terminal Cre fragment identical to that in cCre, without leucine zipper peptide, P06956
T1 chain: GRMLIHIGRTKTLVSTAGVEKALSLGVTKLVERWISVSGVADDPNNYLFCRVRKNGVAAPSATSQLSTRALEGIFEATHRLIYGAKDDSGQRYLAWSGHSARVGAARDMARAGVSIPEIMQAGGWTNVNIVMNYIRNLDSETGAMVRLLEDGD

ATAACTTCGTATAATGTATGCTATACGAAGTTAT (double strand) [loxP]
Cre recombinase activity relative to intact Cre [1]: < 2%

nCre (N-terminal half of Cre with an N-terminal SV40 large T antigen NLS, fused at its C-terminus to the N-peptide leucine zipper) (from UniProt P06956 1-190) (enzyme)
recombinase activity of intact Cre molecule reconstituted (GFP/mCherry reporter, flow cytometry, co-transfected HEK293 cells) [2]: 12.1%
Cre activity recovered (GFP/mCherry reporter, flow cytometry, co-transfected HEK293 cells) [3]: 27.2%

Cre fragment α5 (reported in Casanova et al., 2003)
Cre activity recovered from fragments lacking protein interaction motifs (tissue culture) [4]: less than 2% Cre activity was recovered

B1: N-terminal Cre fragment identical to that in nCre, without leucine zipper peptide (protein)
chain: MSNLLTVHQNLPALPVDATSDEVRKNLMDMFRDRQAFSEHTWKMLLSVCRSWAAWCKLNNRKWFPAEPEDVRDYLLYLQARGLAVKTIQQHLGQLNMLHRRSGLPRPSDSNAVSLVMRRIRKENVDAGERAKQALAFERTDFDQVRSLMENSDRCQDIRNLAFLGIAYNTLLRIAEIARIRVKDISRTDG
Cre activity generated by co-expression of fragments without interaction motifs (tissue culture) [5]: less than 0.5% of Cre activity
